Test results as given in the RNAGym collection of RNA variant scans (doi:10.7554/elife.80360).

B1: Twister Ribozyme (parent)
chain: AACACUGCCAAUGCCGGUCCCAAGCCCGGAUAAAAGUGGAGGGGGCGG

Variants of: B1
Test: self-cleavage, relative activity (ratio to wild type); higher = more cleavage; co-transcriptional
In the case of AACACUGCCAAUGCCGGUACCAAGCCCGGAUAAAAGUGGAGGGAGCGG [C19A G44A], the self-cleavage is reported as 0.685. Work on AACACUGCCAAUGCCGGUACCAAGCCCGGAUAAUAGUGGAGGGGGCGG [C19A A34U] yielded a self-cleavage of 0.116. In the case of AACACUGCCAAUGCCGGUGCCAAGCCCGGCUAAAAGUGGAGGGGGCGG [C19G A30C], the self-cleavage is reported as 0.0929. With AACACUGCCAAUGCCGGUACCAAGCCCGGAUAAAAGUGGAGUGGGCGG [C19A G42U] the self-cleavage was 0.103. AACACUGCCAAUGCCGGUACCAAGCCCGGAUAAAAGUGGAGAGGGCGG [C19A G42A] gave a self-cleavage of 0.135. Work on AACACUGCCAAUGCCGGUACCAAGCCCGGAUAAAAGUGGAGCGGGCGG [C19A G42C] yielded a self-cleavage of 0.197. Work on AACACUGCCAAUGCCGGUGUCAAGCCCGGAUAAAAGUGGAGGGGGCGG [C19G C20U] yielded a self-cleavage of 0.117. AACACUGCCAAUGCCGGUGACAAGCCCGGAUAAAAGUGGAGGGGGCGG [C19G C20A] gave a self-cleavage of 0.0695. Variant AACACUGCCAAUGCCGGUGCCAAGCCCCGAUAAAAGUGGAGGGGGCGG [C19G G28C] has a self-cleavage of 0.108. AACACUGCCAAUGCCGGUACCAAGCCCGAAUAAAAGUGGAGGGGGCGG [C19A G29A] showed a self-cleavage of 0.27. For AACACUGCCAAUGCCGGUGCCAAGCCCGGAUAAAAGUGGAGGGGGCCG [C19G G47C], the self-cleavage was 0.193. Work on AACACUGCCAAUGCCGGUGCCAAGCCCGGAUAAAAGUGGAGGGGGCAG [C19G G47A] yielded a self-cleavage of 0.105. With AACACUGCCAAUGCCGGUGCCAAGCGCGGAUAAAAGUGGAGGGGGCGG [C19G C26G] the self-cleavage was 0.0807. With AACACUGCCAAUGCCGGUGCCAAGCACGGAUAAAAGUGGAGGGGGCGG [C19G C26A] the self-cleavage was 0.0816. Work on AACACUGCCAAUGCCGGUACCAAGCCCGGAUAAAAAUGGAGGGGGCGG [C19A G36A] yielded a self-cleavage of 0.102. With AACACUGCCAAUGCCGGUACCAAGCCCGGUUAAAAGUGGAGGGGGCGG [C19A A30U] the self-cleavage was 0.349. Variant AACACUGCCAAUGCCGGUACCAAGCCCGGGUAAAAGUGGAGGGGGCGG [C19A A30G] has a self-cleavage of 0.444. AACACUGCCAAUGCCGGUACCAAGCCCGGAUAAAAGGGGAGGGGGCGG [C19A U37G] gave a self-cleavage of 0.0778. In the case of AACACUGCCAAUGCCGGUACCAAGCCCGGAUAAAAGCGGAGGGGGCGG [C19A U37C], the self-cleavage is reported as 0.0949. AACACUGCCAAUGCCGGUGCCAAGCCCGGAUGAAAGUGGAGGGGGCGG [C19G A32G] showed a self-cleavage of 0.267. AACACUGCCAAUGCCGGUGCCAAGCCCGCAUAAAAGUGGAGGGGGCGG [C19G G29C] gave a self-cleavage of 0.0886. For AACACUGCCAAUGCCGGUGCCAAGCCCGUAUAAAAGUGGAGGGGGCGG [C19G G29U], the self-cleavage was 0.29. With AACACUGCCAAUGCCGGUACUAAGCCCGGAUAAAAGUGGAGGGGGCGG [C19A C21U] the self-cleavage was 0.0833. Variant AACACUGCCAAUGCCGGUACCAAGCCCGGAUAAAAGUGGAGGGGGCGU [C19A G48U] has a self-cleavage of 0.206. Variant AACACUGCCAAUGCCGGUUCCCAGCCCGGAUAAAAGUGGAGGGGGCGG [C19U A22C] has a self-cleavage of 1.15. With AACACUGCCAAUGCCGGUUCCUAGCCCGGAUAAAAGUGGAGGGGGCGG [C19U A22U] the self-cleavage was 0.601. With AACACUGCCAAUGCCGGUACCAAGGCCGGAUAAAAGUGGAGGGGGCGG [C19A C25G] the self-cleavage was 0.0863. AACACUGCCAAUGCCGGUACCAAGACCGGAUAAAAGUGGAGGGGGCGG [C19A C25A] showed a self-cleavage of 0.0869. AACACUGCCAAUGCCGGUACCAAGCCCGGAUAAAAGUGGAUGGGGCGG [C19A G41U] gave a self-cleavage of 0.109. Work on AACACUGCCAAUGCCGGUACCAAGCCCGGAUAAAAGUGGACGGGGCGG [C19A G41C] yielded a self-cleavage of 0.114. AACACUGCCAAUGCCGGUACCAAGCCCGGAUAAAAGUAGAGGGGGCGG [C19A G38A] gave a self-cleavage of 0.132. AACACUGCCAAUGCCGGUACCAAGCCCGGAUAAAAGUUGAGGGGGCGG [C19A G38U] showed a self-cleavage of 0.12. AACACUGCCAAUGCCGGUGCCAAGCCCGGAUAAAGGUGGAGGGGGCGG [C19G A35G] gave a self-cleavage of 0.0996. Work on AACACUGCCAAUGCCGGUGCCAAGCCCGGAUAAAAGUGGAGGGGACGG [C19G G45A] yielded a self-cleavage of 0.321. AACACUGCCAAUGCCGGUGCCAAGCCCGGAUAAGAGUGGAGGGGGCGG [C19G A34G] showed a self-cleavage of 0.108. With AACACUGCCAAUGCCGGUGCCAAGCCCGGAUAAUAGUGGAGGGGGCGG [C19G A34U] the self-cleavage was 0.12. With AACACUGCCAAUGCCGGUACCAAGCCCGGAUAUAAGUGGAGGGGGCGG [C19A A33U] the self-cleavage was 0.148. AACACUGCCAAUGCCGGUACCAAGCCCGGAUACAAGUGGAGGGGGCGG [C19A A33C] gave a self-cleavage of 0.0946. AACACUGCCAAUGCCGGUGCCAAGCCAGGAUAAAAGUGGAGGGGGCGG [C19G C27A] gave a self-cleavage of 0.0851. For AACACUGCCAAUGCCGGUGCCAAGCCGGGAUAAAAGUGGAGGGGGCGG [C19G C27G], the self-cleavage was 0.0733. Variant AACACUGCCAAUGCCGGGCCCAAGCCCGGACAAAAGUGGAGGGGGCGG [U18G U31C] has a self-cleavage of 0.106. With AACACUGCCAAUGCCGGGCCCAAGCCCGGAAAAAAGUGGAGGGGGCGG [U18G U31A] the self-cleavage was 0.0937. AACACUGCCAAUGCCGGGCCCAAGCCCGGAGAAAAGUGGAGGGGGCGG [U18G U31G] gave a self-cleavage of 0.102. Work on AACACUGCCAAUGCCGGUGCCAAGCCCGGAUAAAAGUGAAGGGGGCGG [C19G G39A] yielded a self-cleavage of 0.104. AACACUGCCAAUGCCGGUGCCAAGCCCGGAUAAAAGUGUAGGGGGCGG [C19G G39U] showed a self-cleavage of 0.118. With AACACUGCCAAUGCCGGUGCCAAGCCCGGAUAAAAGUGCAGGGGGCGG [C19G G39C] the self-cleavage was 0.162. AACACUGCCAAUGCCGGUACCAAGCCCGGAUAAAAGUGAAGGGGGCGG [C19A G39A] showed a self-cleavage of 0.136. Work on AACACUGCCAAUGCCGGUACCAAGCCCGGAUAAAAGUGCAGGGGGCGG [C19A G39C] yielded a self-cleavage of 0.126. AACACUGCCAAUGCCGGUACCAAGCCCGGAUAAAAGUGGAGGCGGCGG [C19A G43C] gave a self-cleavage of 0.317. Variant AACACUGCCAAUGCCGGGCCCAAGCCCGGAUAAAAGUGGAUGGGGCGG [U18G G41U] has a self-cleavage of 0.0362. In the case of AACACUGCCAAUGCCGGGCCCAAGCCCGGAUAAAAGUGGAAGGGGCGG [U18G G41A], the self-cleavage is reported as 0.0588. AACACUGCCAAUGCCGGUACCAAGCCCGGAUAAAAGUGGAGGGGACGG [C19A G45A] gave a self-cleavage of 0.196. AACACUGCCAAUGCCGGUACCAAGCCCGGAUAAAAGUGGAGGGGUCGG [C19A G45U] gave a self-cleavage of 0.257. In the case of AACACUGCCAAUGCCGGUGCCAAGCCCGGAUAAAAGUGGGGGGGGCGG [C19G A40G], the self-cleavage is reported as 0.135.
